{"source": "patent US20090099029", "data": [{"target": "T1, Bovine, dephosphorylated, Myelin Basic Protein (MBP), P02687", "T1 chain": "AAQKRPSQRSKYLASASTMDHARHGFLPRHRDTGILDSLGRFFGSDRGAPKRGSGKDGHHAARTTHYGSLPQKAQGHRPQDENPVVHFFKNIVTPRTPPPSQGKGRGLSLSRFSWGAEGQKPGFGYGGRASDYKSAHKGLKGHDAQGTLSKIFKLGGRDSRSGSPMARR", "values": [{"protein": "BTK (protein) MAAVILESIFLKRSQQKKKTSPLNFKKRLFLLTVHKLSYYEYDFERGRRGSKKGSIDVEKITCVETVVPEKNPPPERQIPRRGEESSEMEQISIIERFPYPFQVVYDEGPLYVFSPTEELRKRWIHQLKNVIRYNSDLVQKYHPCFWIDGQYLCCSQTAKNAMGCQILENRNGSLKPGSSHRKTKKPLPPTPEEDQILKKPLPPEPAAAPVSTSELKKVVALYDYMPMNANDLQLRKGDEYFILEESNLPWWRARDKNGQEGYIPSNYVTEAEDSIEMYEWYSKHMTRSQAEQLLKQEGKEGGFIVRDSSKAGKYTVSVFAKSTGDPQGVIRHYVVCSTPQSQYYLAEKHLFSTIPELINYHQHNSAGLISRLKYPVSQQNKNAPSTAGLGYGSWEIDPKDLTFLKELGTGQFGVVKYGKWRGQYDVAIKMIKEGSMSEDEFIEEAKVMMNLSHEKLVQLYGVCTKQRPIFIITEYMANGCLLNYLREMRHRFQTQQLLEMCKDVCEAMEYLESKQFLHRDLAARNCLVNDQGVVKVSDFGLSRYVLDDEYTSSVGSKFPVRWSPPEVLMYSKFSSKSDIWAFGVLMWEIYSLGKMPYERFTNSETAEHIAQGLRLYRPHLASEKVYTIMYSCWHEKADERPTFKILLSNILDVMDEES", "MBP Kinase Activity": "Strong"}, {"protein": "ABL2(ARG) (protein) MGQQVGRVGEAPGLQQPQPRGIRGSSAARPSGRRRDPAGRTTETGFNIFTQHDHFASCVEDGFEGDKTGGSSPEALHRPYGCDVEPQALNEAIRWSSKENLLGATESDPNLFVALYDFVASGDNTLSITKGEKLRVLGYNQNGEWSEVRSKNGQGWVPSNYITPVNSLEKHSWYHGPVSRSAAEYLLSSLINGSFLVRESESSPGQLSISLRYEGRVYHYRINTTADGKVYVTAESRFSTLAELVHHHSTVADGLVTTLHYPAPKCNKPTVYGVSPIHDKWEMERTDITMKHKLGGGQYGEVYVGVWKKYSLTVAVKTLKEDTMEVEEFLKEAAVMKEIKHPNLVQLLGVCTLEPPFYIVTEYMPYGNLLDYLRECNREEVTAVVLLYMATQISSAMEYLEKKNFIHRDLAARNCLVGENHVVKVADFGLSRLMTGDTYTAHAGAKFPIKWTAPESLAYNTFSIKSDVWAFGVLLWEIATYGMSPYPGIDLSQVYDLLEKGYRMEQPEGCPPKVYELMRACWKWSPADRPSFAETHQAFETMFHDSSISEEVAEELGRAASSSSVVPYLPRLPILPSKTRTLKKQVENKENIEGAQDATENSASSLAPGFIRGAQASSGSPALPRKQRDKSPSSLLEDAKETCFTRDRKGGFFSSFMKKRNAPTPPKRSSSFREMENQPHKKYELTGNFSSVASLQHADGFSFTPAQQEANLVPPKCYGGSFAQRNLCNDDGGGGGGSGTAGGGWSGITGFFTPRLIKKTLGLRAGKPTASDDTSKPFPRSNSTSSMSSGLPEQDRMAMTLPRNCQRSKLQLERTVSTSSQPEENVDRANDMLPKKSEESAAPSRERPKAKLLPRGATALPLRTPSGDLAITEKDPPGVGVAGVAAAPKGKEKNGGARLGMAGVPEDGEQPGWPSPAKAAPVLPTTHNHKVPVLISPTLKHTPADVQLIGTDSQGNKFKLLSEHQVTSSGDKDRPRRVKPKCAPPPPPVMRLLQHPSICSDPTEEPTALTAGQSTSETQEGGKKAALGAVPISGKAGRPVMPPPQVPLPTSSISPAKMANGTAGTKVALRKTKQAAEKISADKISKEALLECADLLSSALTEPVPNSQLVDTGHQLLDYCSGYVDCIPQTRNKFAFREAVSKLELSLQELQVSSAAAGVPGTNPVLNNLLSCVQEISDVVQR", "MBP Kinase Activity": "Weak"}, {"protein": "FER (protein) KSGVVLLNPIPKDKKWILSHEDVILGELLGKGNFGEVYKGTLKDKTSVAVKTCKEDLPQELKIKFLQEAKILKQYDHPNIVKLIGVCTQRQPVYIIMELVSGGDFLTFLRRKKDELKLKQLVKFSLDAAAGMLYLESKNCIHRDLAARNCLVGENNVLKISDFGMSRQEDGGVYSSSGLKQIPIKWTAPEALNYGRYSSESDVWSFGILLWETFSLGVCPYPGMTNQQAREQVERGYRMSAPQHCPEDISKIMMKCWDYKPENRPKFSELQKELTIIKRKLT", "MBP Kinase Activity": "Negative"}, {"protein": "PDGFRB (protein) MLWQKKPRYEIRWKVIESVSSDGHEYIYVDPMQLPYDSTWELPRDQLVLGRTLGSGAFGQVVEATAHGLSHSQATMKVAVKMLKSTARSSEKQALMSELKIMSHLGPHLNVVNLLGACTKGGPIYIITEYCRYGDLVDYLHRNKHTFLQHHSDKRRPPSAELYSNALPVGLPLPSHVSLTGESDGGYMDMSKDESVDYVPMLDMKGDVKYADIESSNYMAPYDNYVPSAPERTCRATLINESPVLSYMDLVGFSYQVANGMEFLASKNCVHRDLAARNVLICEGKLVKICDFGLARDIMRDSNYISKGSTFLPLKWMAPESIFNSLYTTLSDVWSFGILLWEIFTLGGTPYPELPMNEQFYNAIKRGYRMAQPAHASDEIYEIMQKCWEEKFEIRPPFSQLVLLLERLLGEGYKKKYQQVDEEFLRSDHPAILRSQARLPGFHGLRSPLDTSSVLYTAVQPNEGDNDYIIPLPDPKPEVADEGPLEGSPSLASSTLNEVNTSSTISCDSPLEPQDEPEPEPQLELQVEPEPELEQLPDSGCPAPRAEAEDSFL", "MBP Kinase Activity": "Strong"}, {"protein": "CSF1R (protein) YKYKQKPKYQVRWKIIESYEGNSYTFIDPTQLPYNEKWEFPRNNLQFGKTLGAGAFGKVVEATAFGLGKEDAVLKVAVKMLKSTAHADEKEALMSELKIMSHLGQHENIVNLLGACTHGGPVLVITEYCCYGDLLNFLRRKAEAMLGPSLSPGQDPEGGVDYKNIHLEKKYVRRDSGFSSQGVDTYVEMRPVSTSSNDSFSEQDLDKEDGRPLELRDLLHFSSQVAQGMAFLASKNCIHRDVAARNVLLTNGHVAKIGDFGLARDIMNDSNYIVKGNARLPVKWMAPESIFDCVYTVQSDVWSYGILLWEIFSLGLNPYPGILVNSKFYKLVKDGYQMAQPAFAPKNIYSIMQACWALEPTHRPTFQQICSFLQEQAQEDRRERDYTNLPSSSRSGGSGSSSSELEEESSSEHLTCCEQGDIAQPLLQPNNYQFC", "MBP Kinase Activity": "Strong"}, {"protein": "ROS1 (protein) HRRLKNQKSAKEGVTVLINEDKELAELRGLAAGVGLANACYAIHTLPTQEEIENLPAFPREKLTLRLLLGSGAFGEVYEGTAVDILGVGSGEIKVAVKTLKKGSTDQEKIEFLKEAHLMSKFNHPNILKQLGVCLLNEPQYIILELMEGGDLLTYLRKARMATFYGPLLTLVDLVDLCVDISKGCVYLERMHFIHRDLAARNCLVSVKDYTSPRIVKIGDFGLARDIYKNDYYRKRGEGLLPVRWMAPESLMDGIFTTQSDVWSFGILIWEILTLGHQPYPAHSNLDVLNYVQTGGRLEPPRNCPDDLWNLMTQCWAQEPDQRPTFHRIQDQLQLFRNFFLNSIYKSRDEANNSGVINESFEGEDGDVICLNSDDIMPVALMETKNREGLNYMVLATECGQGEEKSEGPLGSQESESCGLRKEEKEPHADKDFCQEKQVAYCPSGKPEGLNYACLTHSGYGDGSD", "MBP Kinase Activity": "Strong"}, {"protein": "CSK (protein) MSAIQAAWPSGTECIAKYNFHGTAEQDLPFCKGDVLTIVAVTKDPNWYKAKNKVGREGIIPANYVQKREGVKAGTKLSLMPWFHGKITREQAERLLYPPETGLFLVRESTNYPGDYTLCVSCDGKVEHYRIMYHASKLSIDEEVYFENLMQLVEHYTSDADGLCTRLIKPKVMEGTVAAQDEFYRSGWALNMKELKLLQTIGKGEFGDVMLGDYRGNKVAVKCIKNDATAQAFLAEASVMTQLRHSNLVQLLGVIVEEKGGLYIVTEYMAKGSLVDYLRSRGRSVLGGDCLLKFSLDVCEAMEYLEGNNFVHRDLAARNVLVSEDNVAKVSDFGLTKEASSTQDTGKLPVKWTAPEALREKKFSTKSDVWSFGILLWEIYSFGRVPYPRIPLKDVVPRVEKGYKMDAPDGCPPAVYEVMKNCWHLDAAMRPSFLQLREQLEHIKTHELHL", "MBP Kinase Activity": "Negative"}, {"protein": "BMX (protein) MDTKSILEELLLKRSQQKKKMSPNNYKERLFVLTKTNLSYYEYDKMKRGSRKGSIEIKKIRCVEKVNLEEQTPVERQYPFQIVYKDGLLYVYASNEESRSQWLKALQKEIRGNPHLLVKYHSGFFVDGKFLCCQQSCKAAPGCTLWEAYANLHTAVNEEKHRVPTFPDRVLKIPRAVPVLKMDAPSSSTTLAQYDNESKKNYGSQPPSSSTSLAQYDSNSKKIYGSQPNFNMQYIPREDFPDWWQVRKLKSSSSSEDVASSNQKERNVNHTTSKISWEFPESSSSEEEENLDDYDWFAGNISRSQSEQLLRQKGKEGAFMVRNSSQVGMYTVSLFSKAVNDKKGTVKHYHVHTNAENKLYLAENYCFDSIPKLIHYHQHNSAGMITRLRHPVSTKANKVPDSVSLGNGIWELKREEITLLKELGSGQFGVVQLGKWKGQYDVAVKMIKEGSMSEDEFFQEAQTMMKLSHPKLVKFYGVCSKEYPIYIVTEYISNGCLLNYLRSHGKGLEPSQLLEMCYDVCEGMAFLESHQFIHRDLAARNCLVDRDLCVKVSDFGMTRYVLDDQYVSSVGTKFPVKWSAPEVFHYFKYSSKSDVWAFGILMWEVFSLGKQPYDLYDNSQVVLKVSQGHRLYRPHLASDTIYQIMYSCWHELPEKRPTFQQLLSSIEPLREKDKH", "MBP Kinase Activity": "Strong"}, {"protein": "TYRO3 (protein) LRKRRKETRFGQAFDSVMARGEPAVHFRAARSFNRERPERIEATLDSLGISDELKEKLEDVLIPEQQFTLGRMLGKGEFGSVREAQLKQEDGSFVKVAVKMLKADIIASSDIEEFLREAACMKEFDHPHVAKLVGVSLRSRAKGRLPIPMVILPFMKHGDLHAFLLASRIGENPFNLPLQTLIRFMVDIACGMEYLSSRNFIHRDLAARNCMLAEDMTVCVADFGLSRKIYSGDYYRQGCASKLPVKWLALESLADNLYTVQSDVWAFGVTMWEIMTRGQTPYAGIENAEIYNYLIGGNRLKQPPECMEDVYDLMYQCWSADPKQRPSFTCLRMELENILGQLSVLSASQDPLYINIERAEEPTAGGSLELPGRDQPYSGAGDGSGMGAVGGTPSDCRYILTPGGLAEQPGQAEHQPESPLNETQRLLLLQQGLLPHSSC", "MBP Kinase Activity": "Strong"}, {"protein": "RET (protein) HCYHKFAHKPPISSAEMTFRRPAQAFPVSYSSSGARRPSLDSMENQVSVDAFKILEDPKWEFPRKNLVLGKTLGEGEFGKVVKATAFHLKGRAGYTTVAVKMLKENASPSELRDLLSEFNVLKQVNHPHVIKLYGACSQDGPLLLIVEYAKYGSLRGFLRESRKVGPGYLGSGGSRNSSSLDHPDERALTMGDLISFAWQISQGMQYLAEMKLVHRDLAARNILVAEGRKMKISDFGLSRDVYEEDSYVKRSQGRIPVKWMAIESLFDHIYTTQSDVWSFGVLLWEIVTLGGNPYPGIPPERLFNLLKTGHRMERPDNCSEEMYRLMLQCWKQEPDKRPVFADISKDLEKMMVKRRDYLDLAASTPSDSLIYDDGLSEEETPLVDCNNAPLPRALPSTWIENKLYGMSDPNWPGESPVPLTRADGTNTGFPRYPNDSVYANWMLSPSAAKLMDTFDS", "MBP Kinase Activity": "Strong"}]}]}
